Laboratory results taken from publication PMC10763354.

What was measured:
[1] = biological target: leucine-rich repeat containing 19 (LRRC19) protein (UniProt Q9H756); test: MST; Monolith NT.115; NT647-labelled LRRC19 and DVF in the presence of typhaneoside; MST buffer (50 mM Tris-HCl pH 7.4, 150 mM NaCl, 10 mM MgCl2)
[2] = biological target: leucine-rich repeat containing 19 (LRRC19) protein (UniProt Q9H756); test: SPR; BIACORE 3000, 25 °C; LRRC19 immobilised on a CM5 chip (EDC/NHS); DVF in Tris buffered saline injected at 30 μL/min, at least 5 concentrations, 180 s binding, 300 s dissociation

leucine-rich repeat containing 19 (LRRC19) protein, sequence (Q9H756 25-270): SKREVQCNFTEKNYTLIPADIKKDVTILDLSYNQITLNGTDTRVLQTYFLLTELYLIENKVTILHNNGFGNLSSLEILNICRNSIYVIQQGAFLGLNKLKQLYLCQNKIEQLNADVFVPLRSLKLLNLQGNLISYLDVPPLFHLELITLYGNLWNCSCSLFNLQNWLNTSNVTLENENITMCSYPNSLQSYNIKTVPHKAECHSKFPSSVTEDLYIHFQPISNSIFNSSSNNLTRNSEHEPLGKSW

Desulfovibrio vulgaris flagellin (natural protein)
fold reduction of the binding affinity by typhaneoside (against DVF-LRRC19 without it) [1]: 400 fold | Kd [2]: 35 µM
